From the supplement of paper PMC10126150
± gives the standard deviation of the averaged measurements.

Test system: ATP
Test: switch fluorescence ratio, 500 uM ATP over buffer (Cy3 cluster intensity, sum of 5 cycles each) (fold (ratio)); higher = stronger signal-on switching upon ATP binding; sequences stand for … in TCGTCGGCAGCGTCAGATGTGTATAAGAGACAGTTTTTTTTTTTTTTTTTTTTTTTTT…TC
Details: aptamer strand: ATP DNA aptamer (quencher-CACCTGGGGGAGTATTGCGGAGGAAGG + anchor), 100 nM annealed; ATP concentration: 500 uM
How it was run: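 Switching-strand clusters labelled with Cy3 on a modified Illumina MiSeq flow-cell were annealed to 100 nM quencher-labelled ATP aptamer, imaged in selection buffer, and re-imaged after 15 min with 500 uM ATP at 22 °C. This was done over five cycles with NaOH stripping and re-annealing in between. The fluorescence ratio is summed target-cycle over summed buffer-cycle Cy3 intensity per cluster, averaged per switch-domain sequence, excluding clusters outside 100-1000 RFU.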
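Note: ATP exposure 15 min at 22 °C before imaging.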

| Sequence | switch fluorescence ratio |
| --- | --- |
| GGCACTGGAT | 1.02 ± 0.02 |
| GGCACTGGGG | 1.02 ± 0.02 |
| GGCAGCAAGG | 1.084 ± 0.0029 |
| GGCAGCGGGG | 0.991 ± 0.019 |
| GGCAGGAGGG | 1.11 ± 0.22 |
| GGCAGGCCAT | 1.059 ± 0.0074 |
| GGCAGGGGGA | 1.01 ± 0.015 |
| GGCAGGTTGG | 0.952 ± 0.014 |
| GGCAGTTTTT | 0.985 ± 0.02 |
| GGCATAAGGG | 1.03 ± 0.05 |
| GGCATACCGT | 0.997 ± 0.0052 |
| GGCATAGGGG | 1.01 ± 0.026 |
| GGCATCGCCG | 0.954 ± 0.013 |
| GGCATCGTCG | 0.97 ± 0.025 |
| GGCATTAAAG | 0.9841 ± 0.0078 |
| GGCATTGTCT | 1.03 ± 0.023 |
| GGCATTTTTT | 1 ± 0.031 |
| GGCCAATCAG | 1.018 ± 0.0024 |
| GGCCACGCTC | 1.04 ± 0.043 |
| GGCCCCCGGC | 0.969 ± 0.026 |
| GGCCCCGGCG | 1 ± 0.015 |
| GGCCCCTTTT | 1.021 ± 0.0053 |
| GGCCCGGCAC | 1.01 ± 0.013 |

| Sequence | switch fluorescence ratio |
| --- | --- |
| GGCCCGGGGT | 1.44 ± 0.37 |
| GGCCCGTCGG | 1.03 ± 0.0047 |
| GGCCCTAGTA | 1 ± 0.059 |
| GGCCCTCTGA | 1.05 ± 0.018 |
| GGCCCTGAGC | 0.9991 ± 0.0025 |
| GGCCGACTTG | 1 ± 0.043 |
| GGCCGCAGGT | 0.987 ± 0.023 |
| GGCCGCCGTC | 1 ± 0.019 |
| GGCCGGCAAA | 1.01 ± 0.037 |
| GGCCGGGGGG | 1.02 ± 0.058 |
| GGCCGGGGGT | 1.25 ± 0.4 |
| GGCCGGGGTG | 1.18 ± 0.032 |
| GGCCTAAATA | 0.998 ± 0.014 |
| GGCCTAATAG | 1 ± 0.034 |
| GGCCTATGTC | 1.04 ± 0.011 |
| GGCCTCAAAT | 1.01 ± 0.037 |
| GGCCTCCTGT | 1.02 ± 0.033 |
| GGCCTCGCCT | 0.98511 ± 9.3e-05 |
| GGCCTCGTAC | 1.1 ± 0.02 |
| GGCCTCTGCT | 1.02 ± 0.02 |
| GGCCTGGGAC | 1.01 ± 0.027 |
| GGCCTGGGAG | 0.992 ± 0.011 |
| GGCCTTCGGG | 0.972 ± 0.053 |

| Sequence | switch fluorescence ratio |
| --- | --- |
| GGCGAAAGGA | 1 ± 0.041 |
| GGCGAAAGGG | 1.02 ± 0.026 |
| GGCGAAGTCG | 0.999 ± 0.023 |
| GGCGAGGGCT | 0.982 ± 0.051 |
| GGCGAGTTAC | 1.021 ± 0.0012 |
| GGCGATACTA | 1.92 ± 0.11 |
| GGCGATCGCG | 1.02 ± 0.04 |
| GGCGCAGGAG | 1.092 ± 0.0082 |
| GGCGCCGCGG | 0.9937 ± 0.0092 |
| GGCGCCGCTG | 1.016 ± 0.003 |
| GGCGCCGGAA | 0.98 ± 0.031 |
| GGCGCGTGTC | 0.9945 ± 0.009 |
| GGCGCTAGCG | 0.993 ± 0.068 |
| GGCGCTGAGT | 1.017 ± 0.01 |
| GGCGGACAGG | 1.038 ± 0.0062 |
| GGCGGAGAGG | 1.08 ± 0.022 |
| GGCGGAGGGG | 0.998 ± 0.024 |
| GGCGGAGTAT | 1 ± 0.017 |
| GGCGGCAGGG | 1 ± 0.013 |
| GGCGGGATTG | 0.959 ± 0.041 |
| GGCGGGCGCT | 0.993 ± 0.032 |
| GGCGGGGGTC | 1.01 ± 0.029 |
| GGCGGTATAG | 1.02 ± 0.013 |

| Sequence | switch fluorescence ratio |
| --- | --- |
| GGCGGTGTGG | 0.981 ± 0.023 |
| GGCGTAGCTT | 1.01 ± 0.051 |
| GGCGTAGTTA | 0.985 ± 0.018 |
| GGCGTCAAGG | 0.996 ± 0.026 |
| GGCGTCTTTG | 1.019 ± 0.0091 |
| GGCGTTGGGT | 0.9929 ± 0.0096 |
| GGCGTTTTAG | 0.998 ± 0.034 |
| GGCTAACGAC | 1.063 ± 0.0021 |
| GGCTAAGGTC | 1 ± 0.044 |
| GGCTAAGGTT | 0.997 ± 0.015 |
| GGCTAATGGG | 1.021 ± 0.0043 |
| GGCTAATTTT | 1.02 ± 0.011 |
| GGCTACGTTT | 1.05 ± 0.084 |
| GGCTAGGTGC | 1.24 ± 0.058 |
| GGCTATAATA | 1.01 ± 0.034 |
| GGCTATGGGT | 1.02 ± 0.024 |
| GGCTATTGAT | 1.004 ± 0.0073 |
| GGCTATTGCG | 0.995 ± 0.016 |
| GGCTCAGGGC | 0.9793 ± 0.0024 |
| GGCTCATCA | 1.01 ± 0.023 |
| GGCTCCAACG | 1.06 ± 0.013 |
| GGCTCCGGCG | 1.04 ± 0.032 |
| GGCTCCGGTT | 1.19 ± 0.084 |

| Sequence | switch fluorescence ratio |
| --- | --- |
| GGCTCTGATG | 1.01 ± 0.011 |
| GGCTGAAAAA | 0.915 ± 0.056 |
| GGCTGAACGT | 1 ± 0.012 |
| GGCTGAAGGG | 0.996 ± 0.014 |
| GGCTGAGCCT | 0.991 ± 0.038 |
| GGCTGAGGGG | 0.972 ± 0.042 |
| GGCTGCATGC | 1.08 ± 0.023 |
| GGCTGGCTGA | 0.987 ± 0.045 |
| GGCTGGGATT | 0.964 ± 0.02 |
| GGCTGGGGT | 1.02 ± 0.034 |
| GGCTGTGGCG | 0.9761 ± 0.0015 |
| GGCTGTGTTA | 0.9958 ± 0.0024 |
| GGCTGTTTTT | 0.962 ± 0.034 |
| GGCTTAAGCA | 0.988 ± 0.025 |
| GGCTTAGGGC | 1.02 ± 0.027 |
| GGCTTAGTTG | 0.982 ± 0.0024 |
| GGCTTATTGG | 0.969 ± 0.016 |
| GGCTTCTTGT | 1.01 ± 0.009 |
| GGCTTTTGGA | 0.982 ± 0.014 |
| GGCTTTTTTC | 0.993 ± 0.021 |
| GGGAAAAAAC | 1.013 ± 0.0064 |
| GGGAAAAAGT | 0.985 ± 0.027 |
| GGGAAAAGGC | 1.02 ± 0.035 |

| Sequence | switch fluorescence ratio |
| --- | --- |
| GGGAAAATA | 0.969 ± 0.018 |
| GGGAAAATAG | 0.99 ± 0.012 |
| GGGAAAGATT | 1.005 ± 0.01 |
| GGGAAAGCGT | 1.03 ± 0.035 |
| GGGAAAGGAC | 1.03 ± 0.032 |
| GGGAAATAGG | 1.01 ± 0.023 |
| GGGAAATCGT | 1.02 ± 0.012 |
| GGGAACCGGA | 1.03 ± 0.17 |
| GGGAAGACTT | 1.02 ± 0.087 |
| GGGAAGAGGC | 1.01 ± 0.038 |
| GGGAAGGTAT | 0.992 ± 0.017 |
| GGGAAGGTTA | 0.993 ± 0.017 |
| GGGAATAGAG | 0.99 ± 0.035 |
| GGGAATGATC | 1.01 ± 0.034 |
| GGGAATGTAG | 1.01 ± 0.018 |
| GGGAATTCTG | 0.985 ± 0.023 |
| GGGAATTGGT | 0.979 ± 0.02 |
| GGGACAGCAT | 0.996 ± 0.029 |
| GGGACAGCGT | 1.03 ± 0.025 |
| GGGACAGGTA | 1.02 ± 0.022 |
| GGGACATGGG | 0.972 ± 0.041 |
| GGGACCGAAT | 1.004 ± 0.0056 |
| GGGACCGGTT | 0.99 ± 0.03 |

| Sequence | switch fluorescence ratio |
| --- | --- |
| GGGACCTAAG | 1 ± 0.024 |
| GGGACGGCTC | 0.993 ± 0.049 |
| GGGACGGGC | 0.933 ± 0.078 |
| GGGACGTTAG | 1.09 ± 0.034 |
| GGGACTAGAG | 0.9744 ± 0.0061 |
| GGGACTAGTT | 0.959 ± 0.046 |
| GGGAGAAATT | 1.02 ± 0.061 |
| GGGAGAAGCG | 0.982 ± 0.014 |
| GGGAGAATTT | 1.29 ± 0.43 |
| GGGAGAGGCG | 0.984 ± 0.013 |
| GGGAGAGTTG | 0.993 ± 0.023 |
| GGGAGATTGT | 0.999 ± 0.026 |
| GGGAGCATTG | 1.02 ± 0.037 |
| GGGAGCGCGG | 0.994 ± 0.013 |
| GGGAGCTCTG | 1 ± 0.014 |
| GGGAGGAAAA | 1.02 ± 0.016 |
| GGGAGGAAAG | 0.991 ± 0.017 |
| GGGAGGAGTG | 0.98 ± 0.029 |
| GGGAGGATGT | 0.997 ± 0.022 |
